Results on one molecule are retold here after paper PMC2836542 (International Journal of Biological Sciences, 2010).

This experiment concerns the target E2F-1/Y411A (UniProt Q01094 1-437, Y411A). Briefly: co-IP.

Sequence of E2F-1/Y411A (Q01094 whole entry Y411A): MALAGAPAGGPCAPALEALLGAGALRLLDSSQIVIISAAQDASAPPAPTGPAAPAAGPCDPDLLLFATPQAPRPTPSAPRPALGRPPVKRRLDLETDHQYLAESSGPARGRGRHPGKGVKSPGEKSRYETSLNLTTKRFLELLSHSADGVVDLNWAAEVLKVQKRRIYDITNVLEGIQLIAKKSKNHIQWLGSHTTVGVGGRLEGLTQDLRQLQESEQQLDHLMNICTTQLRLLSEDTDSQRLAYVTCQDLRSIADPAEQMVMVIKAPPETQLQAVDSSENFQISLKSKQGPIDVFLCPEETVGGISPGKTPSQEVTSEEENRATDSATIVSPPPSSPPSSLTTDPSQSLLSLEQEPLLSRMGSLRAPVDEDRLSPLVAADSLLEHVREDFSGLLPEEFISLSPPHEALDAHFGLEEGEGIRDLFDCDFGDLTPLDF

B1: pRB (natural protein, mouse (endogenous in ψ-CRE), UniProt P13405 1-921, looked up)
chain: MPPKAPRRAAAAEPPPPPPPPPREDDPAQDSGPEELPLARLEFEEIEEPEFIALCQKLKVPDHVRERAWLTWEKVSSVDGILEGYIQKKKELWGICIFIAAVDLDEMPFTFTELQKSIETSVYKFFDLLKEIDTSTKVDNAMSRLLKKYNVLCALYSKLERTCELIYLTQPSSALSTEINSMLVLKISWITFLLAKGEVLQMEDDLVISFQLMLCVVDYFIKFSPPALLREPYKTAAIPINGSPRTPRRGQNRSARIAKQLENDTRIIEVLCKEHECNIDEVKNVYFKNFIPFINSLGIVSSNGLPEVESLSKRYEEVYLKNKDLDARLFLDHDKTLQTDPIDSFETERTPRKNNPDEEANVVTPHTPVRTVMNTIQQLMVILNSASDQPSENLISYFNNCTVNPKENILKRVKDVGHIFKEKFANAVGQGCVDIGVQRYKLGVRLYYRVMESMLKSEEERLSIQNFSKLLNDNIFHMSLLACALEVVMATYSRSTLQHLDSGTDLSFPWILNVLNLKAFDFYKVIESFIKVEANLTREMIKHLERCEHRIMESLAWLSDSPLFDLIKQSKDGEGPDNLEPACPLSLPLQGNHTAADMYLSPLRSPKKRTSTTRVNSAANTETQAASAFHTQKPLKSTSLALFYKKVYRLAYLRLNTLCARLLSDHPELEHIIWTLFQHTLQNEYELMRDRHLDQIMMCSMYGICKVKNIDLKFKIIVTAYKDLPHAAQETFKRVLIREEEFDSIIVFYNSVFMQRLKTNILQYASTRPPTLSPIPHIPRSPYKFSSSPLRIPGGNIYISPLKSPYKISEGLPTPTKMTPRSRILVSIGESFGTSEKFQKINQMVCNSDRVLKRSAEGGNPPKPLKKLRFDIEGADEADGSKHLPAESKFQQKLAEMTSTRTRMQKQRMNESKDVSNKEEK
With B1, the “fold less binding than E2F-1/wt” value was determined as 5 fold less.
